Measurements published in the DeepSol protein solubility set.

Assay: soluble on expression in E. coli; label from the status in PepcDB or PDB records

Row | Sequence | soluble on expression in E. coli
1 | MTPFMTEDFLLDTEFARRLYHDYAKDQPIFDYHCHLPPQQIAEDYRFKNLYDIWLKGDHYKWRAMRTNGVAERLCTGDASDREKFDAWAATVPHTIGNPLYHWTHLELRRPFGITGKLLSPSTADEIWNECNELLAQDNFSARGIMQQMNVKMVGTTDDPIDSLEHHAEIAKDGSFTIKVLPSWRPDKAFNIEQATFNDYMAKLGEVSDTDIRRFADLQTALTKRLDHFAAHGCKVSDHALDVVMFAEANEAELDSILARRLAGETLSEHEVAQFKTAVLVFLGAEYARRGWVQQYHIGALRNNNLRQFKLLGPDVGFDSINDRPMAEELSKLLSKQNEENLLPKTILYCLNPRDNEVLGTMIGNFQGEGMPGKMQFGSGWWFNDQKDGMERQMTQLAQLGLLSRFVGMLTDSRSFLSYTRHEYFRRILCQMIGRWVEAGEAPADINLLGEMVKNICFNNARDYFAIELN | soluble
2 | RSDTTIVATVNPRDKQTTLVSLARDTYVDIPGQGKQDKLNHAYAFGGASLAMDTVENYLNIPINHYVSINMAGLKELVNAVGGIEVNNNLTFSQDGYDFTIGKISLDGEQALSYSRMRYEDPNGDYGRQERQRKVIEGIVQKVLS | not soluble
3 | MSLLKADGMAKKQTLLVGERLVWDKLTLLGFLEKNHIPQKLYYNLSSQDKELSAEIQSNVTYYTLRDANNTLIQALIPISQDLQIHIYKKGEDYFLDFIPIVFTRKERTLLLSLQTSPYQDIVKATNDPLLANQLMNAYKKSVPFKRLVKNDKIAIVYTRDYRVGQAFGQPTIKMAMVSSRLHQYYLFSHSNGRYYDSKAQEVAGFLLETPVKYTRISSPFSYGRFHPVLKVKRPHYGVDYAAKHGSLIHSASDGRVGFIGVKAGYGKVVEIHLNELRLVYAHMSAFANGLKKGSFVKKGQIIGRVGSTGLSTGPHLHFGVYKNSRPINPLGYIRTAKSKLHGKQREVFLEKAQYSKQKLEELFKTHSFEKNSFYLLEGFEGHHHHHH | soluble
4 | AKVQAYVSDEIVYKINKIVERRRAEGAKSTDVSFSSISTMLLELGLRVYEAQMER | soluble
5 | MAHHHHHHMYLGSIKNFEDDFLCKGEYKQVYLSLEQNENNEAIEIDICCDNNIYDILQFCREKYGIYGEYIIDSCGNVIHSIKDIIDGDTLYLKEKKEDMNFFSKIKNNFIVNDYIVEKRIGSGGFGIVFQGVHIQTKQKVALKFIPKSNFLDVTDVHRVFIEIQTLRGLIHNNIIKMYDVNHFQNYVCLIMEYAINGDLKNYIKNKFNGFLSEKEAHDLFLQIVKGVYYCHSKHIVHRDLKLENILLDEKMTCKIADFGLSDFVNVDQNIKTEAGTKAYIAPEIIFNQTINYSVFKLDIWSLGILLFIMTQGFAPFKYMEKELKNFESNTLNYANDISDDLKDLISLMLNVDPNKRPIIVEILNHRWFENYKES | soluble
6 | MKSPSAGAPDRHASSRSVPDRWNMHKPMLCDSLPTASRTAAAILNLAQREDVTAEALAQLIQTDPALTGRILRFANAPAQGTRRPVASVIDAIDLVGLPAVRQFALSLSLIDAHREGRCEAFDYAAYWQKSLARAVALQSITAQASTVAPKEAFTLGLLADVGRLALATAWPEEYSECLRKADGEALIALERERFATDHDELTRMLLTDWGFPQVFIDALQLSQQDEIRDEGRTGRFARQLALAQHIADHRLAEEPRRAALSPLLRAEARRCGLGDEDLARLLADPPADWLDWTRTIGLPGDAPTGGAEPSRPPPQTDEKLHVLLADDDPIMLARLSRQLEADGHHVASRRDGETALAYALEHQPEMVITDWHMKPMNGLELCRALRESALGGNVYIVMLTASESEDALVEAFGAGIDDYVIKPPSVRVLKARIRAGQRIITLHKKLARERKEIERYSSELAAANRRLELMAHTDQLTGLPNRRYAMDRLEREWAQARTFDRPLSIMMLDLDWFKSINDSLGHDAGDQALVHAARVMRETVRTSDVVCRMGGEEFLIIIPDTAGPAAIQTAERVRSAVEQQQPAKLKLSRPLTASIGVADSTSAPSLKDLLLKADNALYQVKQNGRNGVRYAGLAAALEHHHHHH | not soluble
7 | MHHHHHHAADPPPVHDTDGHELRADANYYVLSANRAHGGGLTMAPGHGRHCPLFVSQDPNGQHDGFPVRITPYGVAPSDKIIRLSTDVRISFRAYTTCLQSTEWHIDSELAAGRRHVITGPVKDPSPSGRENAFRIEKYSGAEVHEYKLMSSGDWCQDLGVFRDLKGGAWFLGATEPYHVVVFKKAPPA | soluble
8 | ADSVFISGHKNADMDSLGAALGIWRMSRLHDLTAYIIIDDQNLQRDVKLVIGKINDEVDAANEKLKNQATDGKTPKLIEQPFITEKKALSLATDQSLLVLVDHSRPSISAAGQLLEKLKSSLIVIDHHRIADESFSEKPILFYVEQYASSTCELVTELLGYEDRRKSPLTKVEATALLGGIQLDTKGFTSHSGSRTFDAASFLRAAGADAQLLSSFGKESK | not soluble
9 | MGSDKIHHHHHHMNNQEKNMLGFNQDEYLTSAREIIAARQKAEQVADEIYQAGFSSLFFASVGGSLAPMMAINEFAKELTTLPVYVEQAAELIHKGNKRLNKDSVVITLSKSGDTKESVAIAEWCKAQGIRVVAITKNADSPLAQAATWHIPMRHKNGVEYEYMLLYWLFFRVLSRNNEFASYDRFASQLEILPANLLKAKQKFDPQADAIASRYHNSDYMMWVGGAEMWGEVYLFSMCILEEMQWKRTRPVSSAEFFHGALELLEKDVPLILVKGEGKCRALDERVERFASKITDNLVVIDPKAYALDGIDDEFRWIMAPCVVSTLLVDRLAAHFEKYTGHSLDIRRYYRQFDY | soluble
10 | MPETEEISKGLEDVNIKWTRLTTIDGNKGILRYGGYSVEDIIASGAQDEEIQYLFLYGNLPTEQELRKYKETVQKGYKIPDFVINAIRQLPRESDAVAMQMAAVAAMAASETKFKWNKDTDRDVAAEMIGRMSAITVNVYRHIMNMPAELPKPSDSYAESFLNAAFGRKATKEEIDAMNTALILYTDHEVPASTTAGLVAVSTLSDMYSGITAALAALKGPLHGGAAEAAIAQFDEIKDPAMVEKWFNDNIINGKKRLMGFGHRVYKTYDPRAKIFKGIAEKLSSKKPEVHKVYEIATKLEDFGIKAFGSKGIYPNTDYFSGIVYMSIGFPLRNNIYTALFALSRVTGWQAHFIEYVEEQQRLIRPRAVYVGPAERKYVPIAERK | soluble
11 | MGSDKIHHHHHHMIHKLADVQSQNIGDNTKVWQFCVILAGAVIGRNCNICANSLIENDVVIGDNVTIKSGVQIWDGIHIQDDVFIGPNVTFTNDKQPRSKIYPDEYLKTIVKKGASIGANSTILPGILIGENAMVGAGAVITKNVPDNAIVIGNPGRITGYVEANTGVIMPSNNFELKLQMSKVKGVSLHKFHLVNDLRGNLSVGEFEKDIPFTPKRYFTVFGVPNKEVRGEHAHKECKQFLICVSGNCSVLVDDGENREEYVLDSIDKGIYLPPMTWGVQYKYSKDAVLLVFASHYYDSDDYIRDYSTFKQMRQN | not soluble
12 | GHMENKVINFKKIIDSRGSLVAIEENKNIPFSIKRVYYIFDTKGEEPRGFHANKKLEQVLVCLNGSCRVILDDGNIIQEITLDSPAVGLYVGPAVWHEMHDFSSDCVMMVLASDYYDETDYIRQYDNFKKYIAKINLEKEG | soluble
13 | MNFDWQMPRDPFADDPNDPASFIEDDEQAPPLTEAERQHIREDLALVKRFKEALEPRGINGIFFLCEDCDEDHYYDWDIMAANMRATLAGELAPVHEPSVNPNPHAYVPWDYCLGYLDGLEAPRMRFF | not soluble
14 | MTDVRHCPAVLIAAPASGQGKTTVTAALARLHRNRGRKVRVFKCGPDFLDPMILERASGAAVYQLDMWMVGEQESRRLLWEAAGEADLILIEGVMGLFDGTPSSADLARHFGVPVLGVIDGTAMAQTFGALALGLARYQPDLPFAGVLANRVGTLRHAQLLEGSLTEGLRWYGALSRETDIELPSRHLGLVQASELNDLDLRLDAAAEALASSCQVELPPAVSFAAPTPVACAPLLKGVRIAVARDEAFAFTYGASLDLLRAMGAQLSFFSPIHDTQLPDADSLYLPGGYPELHHQALARNSSMLQAIRAHHAAGKPLLAECGGMLYLLDSLTDVEGQRAELLGLLPGDAVMQKRLAALALQAVDLPEGSLRGHTYHHSLTSTELLPIARGLSPNGGRGAEAVYRQGRMTASYVHFYFPSNPAAVAALFAPGAPVEPVLAEGVAGELEHHHHHH | not soluble
15 | MSLRQLLQKRAMQSPNLEALVGGKKRYSFQQYNERVNQLAHYLLHNGVQRGDRIGILCKNNHPFPSVMMASLKIGAVFIPLNHQLTVYELETIVKEAKLKVLVIDEEFSEVLLNVDAVKEIPYVIQTTKEGFGSFELELQKQPTTEPNVEVHEEDDAIYLFTSGTTGQAKACVIGHKNLHHYFAEIAGQREIPAGERFLSVHPLFHMSGVLSILNCIYHGVTMIFLADSNPAIIWDKIEEEKITTMLAFPAVYSYMLDELNKKERNISTFKVAQSGGTKVPETLIQKYMEKGIYMVQGYGSTEGWVVTSWHPMMGKEKMSSVGKTLKNVEVKIVHPETGHELTTNEVGEIHVKSPYMFKGYWNNEKATKKVVKDNWFNMGDAGMIDDDGFLHIMGRYKDVIIRGGDNVYPDQVEDVIHEIQGVLEVAVVGVPDDFWGEVPRAYIVKDGETTLTEESIIQYCKEKLASYKIPEVVFIDELPKNALGKVLKRELRDVVLVKEGHHHHHH | soluble
16 | MSLAKILVIDDESTILQNIKFLLEIDGNEVLTASSSTEGLRIFTENCNSIDVVITDMKMPKLSGMDILREIKKITPHMAVIILTGHGDLDNAILAMKEGAFEYLRKPVTAQDLSIAINNAINRKKLLMENERMTQELLAHRNYLQGLHDSAAKILLNMLPKNLPDIEGFNFAVDYKSCDGVGGDMYDVCDIGDYICFYVFDVSHHGILAAVISIIIKSFLQNIEYNYRQGINKRRFPEIVLDLNLELLSNTAQNVFASLFLGFIDKNSKKLYTVSAGHIPQYIMKENGLVPLESTGPILGVFEDSTYKCAVNQLEPGDKVLLFTDGIIESPSDSSDESSDGNQIFGYENMVKVLESCKNEPISTTIDKIMKAVKDFSGNRCTDDMTILGVEVLKENEGHHHHHH | soluble
17 | MKLVTGFARIRKPSRPIEFGRWPNRSMSVRVPGAMPLASMNLAVGQSVRIGQRPNSSPSSLPNISFAKIRRWPSRRWLRHQGLHGPIDFGRWPNETMSIRVPGAMPLASMKLAVGQSTALAKGQTQHSQRATPLVLQRTTHTLANGQMQPIITPKRIVHQTRSHIVGGSRDIRLGMSLPGDAPAGSRCRQRRFHDALGRPKRSRTLVANRTCPGWDVASSQTWTSPAWPSPQSPSPDGFGSCQTNKDLTSRGCGG | not soluble
18 | EVQLVESGGGLVKPGGSLRLSCAASGFTFSSYSMNWVRQAPGKGLEWVSSISSSSSYISYADSVKGRFTISRDNAKNSLYLQMNSLRAEDTAVYFCARDYDFWSAYYDAFDVWGQGTMVTVSSASTKGPSVFPLAPSSKSTSGGTAALGCLVKDYFPEPVTVSWNSGALTSGVHTFPAVLQSSGLYSLSSVVTVPSSSLGTQTYICNVNHKPSNTKVDKKVEPKSCAADEVDHHHHHH | soluble
19 | MSLWTIMIGSKNRAKVHALQEVVIRDKIIVRSEAVPSDVASQPFSDQETIQGAINRANHCLSFDGVDYGVGLEGGVVRSEYGLFLCNWGALVSQTGDQWVAGGARVPLPQEVAHELEGGKELGDIMESLTKNPDVRMTDGAIGYLTDGEISRKAMFQHVVHLLIGQARRDGHLLRTVTHEGHHHHHH | soluble
20 | PATCPIVPGQEMIIEISKGRSGLGLSIVGGKDTPLNAIVIHEVYEEGAAARDGRLWAGDQILEVNGVDLRNSSHEEAITALRQTPQKVRLVVYRDEAHYRDEE | soluble
